Laboratory results reported in publication doi:10.1101/2022.03.18.484873 (bioRxiv, 2022).

Molecular target: original 2019-nCoV Spike RBD protein (SARS-CoV-2, original 2019-nCoV (Wuhan), UniProt P0DTC2)
Assay: Luminex bead-based competitive binding assay

B1: P2G3 human monoclonal antibody (P2G3 LS, human IgG1) (antibody, V domains shown)
VH: EVQLVESGGGLVQPGRSLRLSCAASGFRFDDYALHWVRQAPEKGLEWVSGISWNSNNIGYAESVKGRFTISRDTAKKSLYLQMNDLRAEDTALYYCVKDRHYDSSGYFVNGFDIWGQGTLVTVSA
VL: DIQLTQSPSFLSASVGDRVTVTCRASQGISSYVAWYQQKAGKAPTLLIYTASTLQSGVPSRFSGSGSGTEFTLTISSLQPEDFATYYCQQLHSYPVTFGQGTRLDIE
B1: binds.

B2: P5C3 human monoclonal antibody (P5C3 LS) (antibody, V domains shown)
VH: QMQLVQSGPEVKKPGTSVKVSCKASGFTFTSSAVQWVRQARGQRLEWIGWIVVGSGNTDYAQQFQERVTITRDMSTSTAYMELSSLGSEDTAVYYCAAPNCSGGSCYDGFDLWGQGTMVTVSS
VL: EIVLTQSPGTLSLSPGERATLSCRGSQSVRSSYLGWYQQKPGQAPRLLIYGASSRATGIPDRFSGSGSGTDFTLTISRLEPEDFAVYYCQQYGSSPWTFGQGTKVEIK
B2: binds.
